Binding result and Kd data for seven molecules are collected here from US20250002938A1 (FRANCIS CRICK INSTITUTE, published 2025).

B3: sfGFP-PKD2 fusion protein (wild type PKD2) (other)
chain: IAIVSPQFQEISLPTTSTVIDGSQSTDDDKIVQYHWEELKGPLREEKISEDTAILKLSKLVPGNYTFSLTVVDSDGATNSTTANLTVNKA
notes: also called sfGFP-PKD2 adaptor protein; PKD2WT; not shown: superfolder GFP (sfGFP)
B6: AAV1 wildtype capsid (virus particle) (other)
chain: MAADGYLPDWLEDNLSEGIREWWDLKPGAPKPKANQQKQDDGRGLVLPGYKYLGPFNGLDKGEPVNAADAAALEHDKAYDQQLKAGDNPYLRYNHADAEFQERLQEDTSFGGNLGRAVFQAKKRVLEPLGLVEEGAKTAPGKKRPVEQSPQEPDSSSGIGKTGQQPAKKRLNFGQTGDSESVPDPQPLGEPPATPAAVGPTTMASGGGAPMADNNEGADGVGNASGNWHCDSTWLGDRVITTSTRTWALPTYNNHLYKQISSASTGASNDNHYFGYSTPWGYFDFNRFHCHFSPRDWQRLINNNWGFRPKRLNFKLFNIQVKEVTTNDGVTTIANNLTSTVQVFSDSEYQLPYVLGSAHQGCLPPFPADVFMIPQYGYLTLNNGSQAVGRSSFYCLEYFPSQMLRTGNNFTFSYTFEEVPFHSSYAHSQSLDRLMNPLIDQYLYYLNRTQNQSGSAQNKDLLFSRGSPAGMSVQPKNWLPGPCYRQQRVSKTKTDNNNSNFTWTGASKYNLNGRESIINPGTAMASHKDDEDKFFPMSGVMIFGKESAGASNTALDNVMITDEEEIKATNPVATERFGTVAVNFQSSSTDPATGDVHAMGALPGMVWQDRDVYLQGPIWAKIPHTDGHFHPSPLMGGFGLKNPPPQILIKNTPVPANPPAEFSATKFASFITQYSTGQVSVEIEWELQKENSKRWNPEVQYTSNYAKSANVDFTVDNNGLYTEPRPIGTRYLTRPL
notes: Assembled virus particle: 60 monomers of VP1, VP2 and VP3 at about 1:1:10; VP2 and VP3 are N-terminally shorter forms of the same entry; also called AAV1WT; AAV1 capsid

In test [1] the target is T1, AAV5(Gln697Cys) virus particle (AAV5).
T1 construct: Assembled particle of VP1, VP2 and VP3; also called AAV5^Q697C
As to the kind of experiment: anti-VP1/2/3 immunoblot of a non-reducing gel, coupling at 10 µM adaptor. On the technique in general: A western blot detects proteins with antibodies after separation by electrophoresis.

The target of test [2] is T2, AAV1(Asp590Cys) virus particle (AAV1).
T2 construct: Assembled particle of VP1, VP2 and VP3, all carrying the mutation; also called AAV1Cys; AAV1 Asp590Cys virions
T2 chain: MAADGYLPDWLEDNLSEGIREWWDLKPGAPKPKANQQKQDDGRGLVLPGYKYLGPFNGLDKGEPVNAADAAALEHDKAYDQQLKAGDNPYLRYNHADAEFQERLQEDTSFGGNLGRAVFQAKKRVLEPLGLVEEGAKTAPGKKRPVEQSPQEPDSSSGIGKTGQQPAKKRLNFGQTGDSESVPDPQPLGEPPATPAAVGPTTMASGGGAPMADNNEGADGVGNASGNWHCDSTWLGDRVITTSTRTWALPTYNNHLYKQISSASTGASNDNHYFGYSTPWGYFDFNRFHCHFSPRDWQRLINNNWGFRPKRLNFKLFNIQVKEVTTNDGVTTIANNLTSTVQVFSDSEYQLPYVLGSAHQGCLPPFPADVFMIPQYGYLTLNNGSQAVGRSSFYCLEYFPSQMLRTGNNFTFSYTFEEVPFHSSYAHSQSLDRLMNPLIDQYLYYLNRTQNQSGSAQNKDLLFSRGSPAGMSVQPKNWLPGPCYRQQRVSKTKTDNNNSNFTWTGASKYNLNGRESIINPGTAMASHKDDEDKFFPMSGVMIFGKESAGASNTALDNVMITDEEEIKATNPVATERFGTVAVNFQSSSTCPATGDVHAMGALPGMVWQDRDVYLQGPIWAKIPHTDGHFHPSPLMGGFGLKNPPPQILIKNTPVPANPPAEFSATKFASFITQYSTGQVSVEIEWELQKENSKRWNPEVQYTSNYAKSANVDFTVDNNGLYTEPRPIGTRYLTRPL
As to the kind of experiment: non-reducing Coomassie SDS-PAGE, covalent coupling of the PKD2(Ser425Cys) fusion with AAV1 D590C.

The target in test [3] is T3, AAV2 wildtype virus particle (AAV2, UniProt P03135 1-735).
T3 construct: Assembled particle of VP1, VP2 and VP3; The virus for SPR was commercially sourced; also called AAV2 wt
As to the kind of experiment: SPR; AAV2 virus amine-coupled on a CM3 chip, increasing concentrations of the fusion protein. In general terms: In SPR one partner is held on a chip, and binding of the other changes the refractive index at the surface.

Test [4] concerns the target T2, AAV1(Asp590Cys) virus particle. The test can be described thus: SDS-PAGE of the mixtures, non-reducing (top, bottom left) and reducing with βME (bottom right); shows disulfide-linked adducts only.
Test [5] has the same target. As to the kind of experiment: anti-VP1/2/3 immunoblot of a non-reducing gel, coupling at 3 µM adaptor in 1 mM TCEP.
In test [6] the target is T4, AAV2(Gln589Cys) virus particle (AAV2, UniProt P03135 1-735).
T4 construct: Assembled particle of VP1, VP2 and VP3
The test can be described thus: anti-VP1/2/3 immunoblot of a non-reducing gel, coupling at 5 µM adaptor.

Test [7] addresses B3. As to the kind of experiment: SPR; AAV1 virus amine-coupled on a CM3 chip, increasing concentrations of the fusion protein.
In test [8] the target is T5, PKD2 domain of AAVR, wild type (Pongo abelii (Sumatran orangutan) …, UniProt Q5RFR6 409-498).
T5 construct: also called PKD2 wild type
T5 sequence: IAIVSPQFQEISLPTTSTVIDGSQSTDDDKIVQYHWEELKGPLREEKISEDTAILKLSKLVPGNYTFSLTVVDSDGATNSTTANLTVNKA
The test can be described thus: response-concentration plot on AAV1 capsid; method not named; PKD2 wild type.

Test [9] has as its target B6. As to the kind of experiment: response-concentration plot on AAV1 capsid; method not named; PKD2(V480E) mutant.

B1: superfolder GFP fused to PKD1(Ser356Cys) (other)
chain: SAGESVQITLPKNEVQLNAYVLQEPPKGETYTYDWQLITHPRDYCGEMEGKHSQILKLSKLTPGLYEFKVIVEGQNAHGEGYVNVTVKPE
notes: also called PKD1^S356C-derived AP; adaptor protein (38.2 kDa); not shown: superfolder GFP
Regarding B1, the binding result in test [1] was “binds”.

B2: msfGFP fused to PKD2(Ser425Cys) (other)
chain: IAIVSPQFQEISLPTTCTVIDGSQSTDDDKIVQYHWEELKGPLREEKISEDTAILKLSKLVPGNYTFSLTVVDSDGATNSTTANLTVNKA
notes: also called monomeric variant of super folder GFP adaptor protein; not shown: monomeric variant of super folder GFP (msfGFP)
For B2, the binding result in [2] is “binds”.

With B3, the Kd in test [3] is around 6 µM.

B4: sfGFP-PKD2(Ser425Cys) adaptor fusion protein (other)
chain: IAIVSPQFQEISLPTTCTVIDGSQSTDDDKIVQYHWEELKGPLREEKISEDTAILKLSKLVPGNYTFSLTVVDSDGATNSTTANLTVNKA
notes: On the virus it forms the AAV1(Asp590Cys)<>sfGFP CAR-V; also called PKD2Cys; sfGFP-PKD2(Ser425Cys) fusion polypeptide; not shown: superfolder GFP (sfGFP)
As for B4, the binding result in test [4] is recorded as “binds”.

B5: superfolder GFP fused to PKD2(Ser425Cys-Val480Glu) (other)
chain: IAIVSPQFQEISLPTTCTVIDGSQSTDDDKIVQYHWEELKGPLREEKISEDTAILKLSKLVPGNYTFSLTVEDSDGATNSTTANLTVNKA
notes: also called sfGFP-PKD2(Ser425Cys-Val480Glu); not shown: superfolder GFP
Turning to B5, the binding result in test [5] and in test [6] was “binds” throughout.

Regarding B6, the Kd in test [7] is around 2 µM; in test [8] it was 12.2 µM.

B7: PKD2(V480E) mutant (receptor)
chain: IAIVSPQFQEISLPTTSTVIDGSQSTDDDKIVQYHWEELKGPLREEKISEDTAILKLSKLVPGNYTFSLTVEDSDGATNSTTANLTVNKA
notes: also called PKD2(V480E) variant of AAVR; Val480Glu mutation
B7 had an equilibrium dissociation constant (Kd) in [9] of 6.13 µM.

In general, Kd refers to the constant that tells how readily two partners part at equilibrium.
